From patent publication US20150344570A1 (published 2015)

T1: FcγRIIb extracellular domain with C-terminal His tag (human, UniProt P31994 43-217)
T1 construct: extracellular domain; also called FcgRIIb; 2b
T1 sequence (looked up): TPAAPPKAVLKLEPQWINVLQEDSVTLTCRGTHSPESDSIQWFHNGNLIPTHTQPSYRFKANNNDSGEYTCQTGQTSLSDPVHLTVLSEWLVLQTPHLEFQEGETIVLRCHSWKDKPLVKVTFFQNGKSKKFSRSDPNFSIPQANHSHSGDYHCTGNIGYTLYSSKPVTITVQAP

T2: FcγRIIa R (human, UniProt P12318 34-217)
T2 construct: extracellular domain; also called FcgRIIa R type; 2aR
T2 sequence (looked up): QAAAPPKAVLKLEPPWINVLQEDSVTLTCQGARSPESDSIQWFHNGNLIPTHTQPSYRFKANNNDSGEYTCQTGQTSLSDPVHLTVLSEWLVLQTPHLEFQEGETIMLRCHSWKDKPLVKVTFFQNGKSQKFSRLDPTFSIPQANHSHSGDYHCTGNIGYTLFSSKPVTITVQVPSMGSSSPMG

B1: GpH7-B3 variant G237_02A/GpL16-k0 (antibody, human IgG1, kappa)
heavy: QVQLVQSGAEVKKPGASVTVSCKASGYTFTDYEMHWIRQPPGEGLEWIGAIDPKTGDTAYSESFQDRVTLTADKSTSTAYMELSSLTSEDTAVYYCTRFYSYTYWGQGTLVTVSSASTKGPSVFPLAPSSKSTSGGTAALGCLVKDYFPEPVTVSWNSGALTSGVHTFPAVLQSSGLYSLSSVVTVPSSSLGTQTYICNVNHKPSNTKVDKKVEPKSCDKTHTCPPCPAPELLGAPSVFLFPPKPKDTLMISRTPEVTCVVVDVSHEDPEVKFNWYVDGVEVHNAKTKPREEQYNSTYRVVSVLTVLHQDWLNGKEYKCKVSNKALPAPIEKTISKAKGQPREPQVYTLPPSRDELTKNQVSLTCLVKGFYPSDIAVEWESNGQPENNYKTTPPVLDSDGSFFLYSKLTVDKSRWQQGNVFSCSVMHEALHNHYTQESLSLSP
light: DIVMTQSPLSLPVTPGEPASISCQASESLVHSNRNTYLHWYLQKPGQSPQLLIYKVSNRFSGVPDRFSGSGSGTDFTLKISRVEAEDVGVYYCSQNTHVPPTFGQGTKVEIERTVAAPSVFIFPPSDEQLKSGTASVVCLLNNFYPREAKVQWKVDNALQSGNSQESVTEQDSKDSTYSLSSTLTLSKADYEKHKVYACEVTHQGLSSPVTKSFNRGEC
notes: also called Ho Ab G237_02A
B2: GpH7-B3 variant A327_07I/GpL16-k0 (antibody, human IgG1, kappa)
heavy: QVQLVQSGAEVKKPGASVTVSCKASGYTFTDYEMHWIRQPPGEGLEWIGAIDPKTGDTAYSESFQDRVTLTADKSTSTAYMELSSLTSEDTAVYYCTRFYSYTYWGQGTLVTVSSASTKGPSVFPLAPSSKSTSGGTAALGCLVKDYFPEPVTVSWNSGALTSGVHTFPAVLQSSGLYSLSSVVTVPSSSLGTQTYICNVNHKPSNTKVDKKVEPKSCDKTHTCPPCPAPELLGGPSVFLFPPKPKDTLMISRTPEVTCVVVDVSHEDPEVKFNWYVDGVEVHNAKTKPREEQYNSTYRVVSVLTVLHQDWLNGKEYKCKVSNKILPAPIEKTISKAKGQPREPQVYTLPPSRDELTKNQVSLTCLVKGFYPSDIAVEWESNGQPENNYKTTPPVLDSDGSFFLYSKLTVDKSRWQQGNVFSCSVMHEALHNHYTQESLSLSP
light: B1 light
notes: also called Ho Ab A327_07I
B3: GpH7-B3 variant A327_18N/GpL16-k0 (antibody, human IgG1, kappa)
heavy: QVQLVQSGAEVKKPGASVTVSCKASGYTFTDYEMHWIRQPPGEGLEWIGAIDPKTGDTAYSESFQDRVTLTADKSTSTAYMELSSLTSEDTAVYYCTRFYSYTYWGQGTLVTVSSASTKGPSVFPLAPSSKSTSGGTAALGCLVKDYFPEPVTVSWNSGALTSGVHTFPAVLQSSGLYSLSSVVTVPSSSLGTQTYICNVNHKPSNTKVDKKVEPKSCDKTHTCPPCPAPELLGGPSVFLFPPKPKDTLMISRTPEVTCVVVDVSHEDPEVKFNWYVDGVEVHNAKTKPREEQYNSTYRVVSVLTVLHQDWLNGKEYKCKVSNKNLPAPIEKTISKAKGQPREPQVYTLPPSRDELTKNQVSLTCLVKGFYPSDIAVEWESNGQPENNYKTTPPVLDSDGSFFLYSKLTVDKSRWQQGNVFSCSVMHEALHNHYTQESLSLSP
light: B1 light
notes: also called Ho Ab A327_18N
B4: GpH7-B3 variant A330_01G/GpL16-k0 (antibody, human IgG1, kappa)
heavy: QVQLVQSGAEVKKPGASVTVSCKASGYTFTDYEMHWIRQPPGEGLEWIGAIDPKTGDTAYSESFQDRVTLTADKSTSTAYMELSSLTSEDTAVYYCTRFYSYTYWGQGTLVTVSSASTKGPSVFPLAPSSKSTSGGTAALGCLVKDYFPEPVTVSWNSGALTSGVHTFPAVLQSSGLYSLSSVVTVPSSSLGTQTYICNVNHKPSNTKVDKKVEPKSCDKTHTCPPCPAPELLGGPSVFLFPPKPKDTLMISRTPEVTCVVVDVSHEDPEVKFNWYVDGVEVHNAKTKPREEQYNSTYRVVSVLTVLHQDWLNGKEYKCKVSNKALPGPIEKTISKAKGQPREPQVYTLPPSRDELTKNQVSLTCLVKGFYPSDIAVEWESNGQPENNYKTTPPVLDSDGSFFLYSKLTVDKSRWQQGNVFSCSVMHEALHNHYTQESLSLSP
light: B1 light
notes: also called Ho Ab A330_01G
B5: GpH7-B3 variant A330_05P/GpL16-k0 (antibody, human IgG1, kappa)
heavy: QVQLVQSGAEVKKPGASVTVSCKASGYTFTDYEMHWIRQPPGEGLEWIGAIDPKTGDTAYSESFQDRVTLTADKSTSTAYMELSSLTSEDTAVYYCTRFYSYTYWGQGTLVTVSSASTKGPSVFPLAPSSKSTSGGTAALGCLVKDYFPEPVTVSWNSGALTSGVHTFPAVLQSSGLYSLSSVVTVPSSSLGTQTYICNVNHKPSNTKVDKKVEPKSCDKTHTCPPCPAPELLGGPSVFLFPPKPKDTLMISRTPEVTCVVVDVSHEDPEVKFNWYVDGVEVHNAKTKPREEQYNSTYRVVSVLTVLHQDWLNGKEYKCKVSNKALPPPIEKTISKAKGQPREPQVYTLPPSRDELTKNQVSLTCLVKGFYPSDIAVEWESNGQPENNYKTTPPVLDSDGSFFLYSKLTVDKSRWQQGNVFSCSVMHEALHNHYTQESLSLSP
light: B1 light
notes: also called Ho Ab A330_05P
B6: GpH7-B3 variant G237_04F/GpL16-k0 (antibody, human IgG1, kappa)
heavy: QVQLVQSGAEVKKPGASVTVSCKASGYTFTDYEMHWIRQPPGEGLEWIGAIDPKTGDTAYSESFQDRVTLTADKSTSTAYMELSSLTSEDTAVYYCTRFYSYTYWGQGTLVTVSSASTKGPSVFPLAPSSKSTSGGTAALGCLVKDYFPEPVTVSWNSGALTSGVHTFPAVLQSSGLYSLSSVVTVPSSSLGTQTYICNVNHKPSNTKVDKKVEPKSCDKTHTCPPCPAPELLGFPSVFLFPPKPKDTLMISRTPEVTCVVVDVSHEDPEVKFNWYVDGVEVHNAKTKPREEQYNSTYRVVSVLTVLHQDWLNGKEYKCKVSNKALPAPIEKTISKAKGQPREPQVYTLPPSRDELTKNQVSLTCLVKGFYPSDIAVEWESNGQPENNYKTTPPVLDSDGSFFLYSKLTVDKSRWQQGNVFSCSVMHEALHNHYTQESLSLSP
light: B1 light
notes: also called Ho Ab G237_04F
B7: GpH7-B3 variant G237_06M/GpL16-k0 (antibody, human IgG1, kappa)
heavy: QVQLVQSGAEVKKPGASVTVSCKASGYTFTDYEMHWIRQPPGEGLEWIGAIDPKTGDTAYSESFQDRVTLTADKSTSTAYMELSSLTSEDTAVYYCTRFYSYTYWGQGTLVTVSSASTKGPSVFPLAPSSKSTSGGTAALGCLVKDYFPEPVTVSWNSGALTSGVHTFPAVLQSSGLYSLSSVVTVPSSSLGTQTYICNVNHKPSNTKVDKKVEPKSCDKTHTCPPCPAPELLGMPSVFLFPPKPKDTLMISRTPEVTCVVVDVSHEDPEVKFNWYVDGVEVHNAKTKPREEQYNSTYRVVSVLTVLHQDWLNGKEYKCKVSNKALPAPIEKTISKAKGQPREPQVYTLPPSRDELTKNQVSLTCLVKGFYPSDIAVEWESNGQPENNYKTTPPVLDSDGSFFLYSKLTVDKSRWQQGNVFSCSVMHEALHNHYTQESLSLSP
light: B1 light
notes: also called Ho Ab G237_06M
B8: GpH7-A5/GpH7-B3 variant K334_04F/GpL16-k0 (antibody, human IgG1, kappa)
heavy 1: not shown
heavy 2: not shown
light: B1 light
notes: also called He Ab K334_04F
B9: GpH7-A5/GpH7-B3 variant K334_05P/GpL16-k0 (antibody, human IgG1, kappa)
heavy 1: not shown
heavy 2: not shown
light: B1 light
notes: also called He Ab K334_05P
B10: GpH7-A5/GpH7-B3 variant K334_08L/GpL16-k0 (antibody, human IgG1, kappa)
heavy 1: not shown
heavy 2: not shown
light: B1 light
notes: also called He Ab K334_08L
B11: GpH7-A5/GpH7-B3 variant K334_10E/GpL16-k0 (antibody, human IgG1, kappa)
heavy 1: not shown
heavy 2: not shown
light: B1 light
notes: also called He Ab K334_10E
B12: GpH7-A5/GpH7-B3 variant K334_12R/GpL16-k0 (antibody, human IgG1, kappa)
heavy 1: not shown
heavy 2: not shown
light: B1 light
notes: also called He Ab K334_12R
B13: GpH7-A5/GpH7-B3 variant K334_13S/GpL16-k0 (antibody, human IgG1, kappa)
heavy 1: not shown
heavy 2: not shown
light: B1 light
notes: also called He Ab K334_13S
B14: GpH7-A5/GpH7-B3 variant K334_19Q/GpL16-k0 (antibody, human IgG1, kappa)
heavy 1: not shown
heavy 2: not shown
light: B1 light
notes: also called He Ab K334_19Q
B15: GpH7-A5/GpH7-B3 variant K334_20W/GpL16-k0 (antibody, human IgG1, kappa)
heavy 1: not shown
heavy 2: not shown
light: B1 light
notes: also called He Ab K334_20W
B16: GpH7-A5/GpH7-B3 variant L234_04F/GpL16-k0 (antibody, human IgG1, kappa)
heavy 1: not shown
heavy 2: not shown
light: B1 light
notes: also called He Ab L234_04F
B17: GpH7-A5/GpH7-B3 variant L234_09D/GpL16-k0 (antibody, human IgG1, kappa)
heavy 1: not shown
heavy 2: not shown
light: B1 light
notes: also called He Ab L234_09D
B18: GpH7-A5/GpH7-B3 variant L234_10E/GpL16-k0 (antibody, human IgG1, kappa)
heavy 1: not shown
heavy 2: not shown
light: B1 light
notes: also called He Ab L234_10E
B19: GpH7-A5/GpH7-B3 variant L234_20W/GpL16-k0 (antibody, human IgG1, kappa)
heavy 1: not shown
heavy 2: not shown
light: B1 light
notes: also called He Ab L234_20W
B20: GpH7-A5/GpH7-B3 variant L235_04F/GpL16-k0 (antibody, human IgG1, kappa)
heavy 1: not shown
heavy 2: not shown
light: B1 light
notes: also called He Ab L235_04F
B21: GpH7-A5/GpH7-B3 variant L235_09D/GpL16-k0 (antibody, human IgG1, kappa)
heavy 1: not shown
heavy 2: not shown
light: B1 light
notes: also called He Ab L235_09D
B22: GpH7-A5/GpH7-B3 variant L235_15Y/GpL16-k0 (antibody, human IgG1, kappa)
heavy 1: not shown
heavy 2: not shown
light: B1 light
notes: also called He Ab L235_15Y
B23: GpH7-A5/GpH7-B3 variant L235_20W/GpL16-k0 (antibody, human IgG1, kappa)
heavy 1: not shown
heavy 2: not shown
light: B1 light
notes: also called He Ab L235_20W
B24: GpH7-A5/GpH7-B3 variant L328_02A/GpL16-k0 (antibody, human IgG1, kappa)
heavy 1: not shown
heavy 2: not shown
light: B1 light
notes: also called He Ab L328_02A
B25: GpH7-A5/GpH7-B3 variant L328_09D/GpL16-k0 (antibody, human IgG1, kappa)
heavy 1: not shown
heavy 2: not shown
light: B1 light
notes: also called He Ab L328_09D
B26: GpH7-A5/GpH7-B3 variant L328_10E/GpL16-k0 (antibody, human IgG1, kappa)
heavy 1: not shown
heavy 2: not shown
light: B1 light
notes: also called He Ab L328_10E
B27: GpH7-A5/GpH7-B3 variant L328_13S/GpL16-k0 (antibody, human IgG1, kappa)
heavy 1: not shown
heavy 2: not shown
light: B1 light
notes: also called He Ab L328_13S

molecular target: T1, FcγRIIb extracellular domain with …; assay: SPR (Biacore), relative binding
Protocol: Analysis of interaction between objective antibody and the FcγR was carried out using Biacore T100 (GE Healthcare). HBS-EP+ (GE Healthcare) was used as the running buffer, and the measurement temperature was set to 25° C. Chips produced by immobilizing the antigen peptide by the amine coupling method to a Series S Sencor Chip CM5 (GE Healthcare), or alternatively, chips produced by allowing preliminarily biotinylated antigen peptides to interact with and immobilize onto a Series S Sensor Chip SA (certified) (GE Healthcare) were used. Antibodies of interest were captured onto an antigen peptide-immobilized chip, and allowed to interact to each FcγR diluted with running buffer. To regenerate and repeatedly use the chip, the antibodies captured on the chip were washed off by reacting 10 mM glycine-HCl, pH 1.5.

| Binder | Ho/Con_2b |
| --- | --- |
| B1 | 47.8 % of HoCon Ab GpH7-B3/GpL16-k0 |
| B2 | 37.6 % of HoCon Ab GpH7-B3/GpL16-k0 |
| B3 | 101 % of HoCon Ab GpH7-B3/GpL16-k0 |
| B4 | 102 % of HoCon Ab GpH7-B3/GpL16-k0 |
| B5 | 35.3 % of HoCon Ab GpH7-B3/GpL16-k0 |
| B6 | 140 % of HoCon Ab GpH7-B3/GpL16-k0 |
| B7 | 35.3 % of HoCon Ab GpH7-B3/GpL16-k0 |

molecular target: T2, FcγRIIa R; assay: SPR (Biacore), captured antibody, FcγR as analyte; relative binding activity

| Binder | He/Con_2aR |
| --- | --- |
| B8 | 110 % (GpH7-A5/GpH7-B3/GpL16-k0 = 100) |
| B9 | 103 % (GpH7-A5/GpH7-B3/GpL16-k0 = 100) |
| B10 | 106 % (GpH7-A5/GpH7-B3/GpL16-k0 = 100) |
| B11 | 106 % (GpH7-A5/GpH7-B3/GpL16-k0 = 100) |
| B12 | 111 % (GpH7-A5/GpH7-B3/GpL16-k0 = 100) |
| B13 | 109 % (GpH7-A5/GpH7-B3/GpL16-k0 = 100) |
| B14 | 109 % (GpH7-A5/GpH7-B3/GpL16-k0 = 100) |
| B15 | 105 % (GpH7-A5/GpH7-B3/GpL16-k0 = 100) |
| B16 | 104 % (GpH7-A5/GpH7-B3/GpL16-k0 = 100) |
| B17 | 122 % (GpH7-A5/GpH7-B3/GpL16-k0 = 100) |
| B18 | 112 % (GpH7-A5/GpH7-B3/GpL16-k0 = 100) |
| B19 | 108 % (GpH7-A5/GpH7-B3/GpL16-k0 = 100) |
| B20 | 114 % (GpH7-A5/GpH7-B3/GpL16-k0 = 100) |
| B21 | 101 % (GpH7-A5/GpH7-B3/GpL16-k0 = 100) |
| B22 | 129 % (GpH7-A5/GpH7-B3/GpL16-k0 = 100) |
| B23 | 131 % (GpH7-A5/GpH7-B3/GpL16-k0 = 100) |
| B24 | 117 % (GpH7-A5/GpH7-B3/GpL16-k0 = 100) |
| B25 | 119 % (GpH7-A5/GpH7-B3/GpL16-k0 = 100) |
| B26 | 105 % (GpH7-A5/GpH7-B3/GpL16-k0 = 100) |
| B27 | 117 % (GpH7-A5/GpH7-B3/GpL16-k0 = 100) |
